Results from CN117551199A (HANGZHOU RONGGU BIOTECHNOLOGY CO LTD, dated 2024).

T1: CLDN18.2 (Claudin18.2) expressed on cells (UniProt P56856-2 1-261)
T1 construct: whole, on cells; also called K562-CLDN18.2
T1 sequence (looked up): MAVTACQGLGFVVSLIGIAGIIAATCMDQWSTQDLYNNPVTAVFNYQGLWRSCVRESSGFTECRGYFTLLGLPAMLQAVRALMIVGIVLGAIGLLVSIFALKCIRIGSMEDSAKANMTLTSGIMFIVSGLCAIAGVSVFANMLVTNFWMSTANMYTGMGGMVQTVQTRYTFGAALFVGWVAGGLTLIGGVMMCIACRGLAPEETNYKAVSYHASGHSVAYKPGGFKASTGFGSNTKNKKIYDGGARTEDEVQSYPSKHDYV

B1: Claudin18.2纳米抗体 2F (VHH)
VHH: QVQLVESGGGSVQAGGSLRLSCAGSGYVYPYYCMGWFRQAPGKERERVASIDRAGSQSYADSVKGRFTISKDNAKNTLYLQMGSLEPEDTAMYYCATDLGDGLWYSGCGTYRYWGQGTQVTVSS
notes: Bactrian camel VHH, made in a cell-free system and purified on His beads; detected through a Myc tag; also called Claudin18.2nb; not shown: N-terminal tag of the cell-free construct (8His-GSG and vector-derived residues, known only from primer DNA); amino acid; C-terminal Myc tag (detected with anti-Myc-Tag 9B11)
B2: Claudin18.2纳米抗体 11C (VHH)
VHH: DVQLQESGGGSVQAGGSLRLSCAASGAIYMRNYMAWFRQVPGKEREGVAGISASSGRTYYDDSVKGRFTISQDNAKNTVYLQMNSLKPEDTAMYFCAADPFQVMIDTMRYWGQGTQVTVSS
notes: as for B1
B3: Claudin18.2纳米抗体 12B (VHH)
VHH: EVQLVESGGGSVQAGGSLRLSCAVSGYTYNLKYMGWFRQAPGKEREPVAFIYLGGDNQYYAPSVKDRFTISQDNAKNTVYLQMNSLKPDDTAMYYCAATTALLFLAQTSSWNYWGQGTQVTVSS
notes: Bactrian camel VHH, made in a cell-free system and purified on His beads; detected through a Myc tag; also called Claudin18.2nb; not shown: N-terminal tag of the cell-free construct (8His-GSG and vector-derived residues, known only from primer DNA); amino acid; C-terminal Myc tag (detected with anti-Myc antibody)
B4: Claudin18.2纳米抗体 10B (VHH)
VHH: EVQLVESGGGSVQAGGSLRLSCAASEQTYNRYCMGWFRQAPGKEREGVADINWRGIPNYSDSVKGRFTISQDHAKNTLYLQMNSLKPEDTAMYYCAARRGLPVVGCYDEYNIWGQGTQVTVSS
notes: as for B1

molecular target: T1, CLDN18.2 (Claudin18.2) expressed on …; assay: flow cytometry on K562-CLDN18.2 cells, anti-Myc-Tag detection

| Binder | binding result |
| --- | --- |
| B1 | binds |
| B2 | binds |
| B3 | binds |
| B4 | binds |
